One block for each substance: values may come before it.
Experiments:
[1] = molecular target: WT/WT nucleosome (Xenopus laevis histone octamer with intact acidic patches on Widom 601 DNA) (Xenopus laevis); assay: cryo-EM structure; biotinylated ALC1 linker peptide at 10-fold molar excess over core nucleosomes (no linker DNA), cross-linked with 0.05% glutaraldehyde, purified on monomeric avidin; 15 mM HEPES pH 7.5, 50 mM NaCl, 1 mM DTT
[2] = molecular target: WT/WT nucleosome (Xenopus laevis histone octamer with intact acidic patches on Widom 601 DNA) (Xenopus laevis)
[3] = molecular target: WT/WT nucleosome (Xenopus laevis histone octamer with intact acidic patches on Widom 601 DNA) (Xenopus laevis); remark: listed apart in the source
[4] = tested on: T1, ALC1RLS peptide-TAMRA (Homo sapiens); assay: fluorescence anisotropy; conditions: Fluorescence anisotropy: 15 mM HEPES pH 7.5, 1 mM EDTA, 5% glycerol, 1 mM DTT, 10 nM peptide, 30 C
T1 sequence: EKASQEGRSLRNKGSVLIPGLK

[5] = molecular target: ALC1^RLS peptide-TAMRA (human); assay: fluorescence polarisation; fluorescence anisotropy; 10 nM TAMRA-labelled peptide, nucleosomes without linker DNA titrated; 30°C; 15 mM HEPES pH 7.5, 1 mM EDTA, 5% glycerol, 1 mM DTT; quadratic fit

stoichiometry N (peptides per nucleosome) [1]: 2
Substance: ALC1 linker peptide-Biotin

smFRET, average translocation pause duration on WT/WT nucleosomes with 3 bp of linker DNA; fold increase against ALC1^fl R860W [2]: > 4 fold | Michaelis constant of remodeling of WT/WT nucleosomes (10 nM); factor of increase against ALC1^fl R860W [3]: 5.3 fold | maximum rate of remodeling of WT/WT nucleosomes (10 nM); factor of decrease against ALC1^fl R860W [3]: 6.4 fold | nucleosome-stimulated ATPase rate under saturating conditions (Vmax estimated); fold reduction against ALC1^fl R860W [3]: 2 fold | nucleosome-stimulated ATPase rate, 20 μM remodeler, 2 μM WT/WT nucleosomes; fold reduction against ALC1^fl R860W [3]: 2.5 fold
Substance: ALC1^fl R611A/S612A/R860W (human ALC1 16-879) (from UniProt Q86WJ1 16-879) (enzyme)

Substance: WT/WT nucleosome 0-601-0
Kd [4]: 1100 nM

Kd [5]: 1100 nM
Substance: WT/WT nucleosome (Xenopus laevis histone octamer with intact acidic patches on Widom 601 DNA) (complex)

Reference: PMC7116876, “Mechanistic Insights into Regulation of the ALC1 Remodeler by the Nucleosome Acidic Patch” (Cell reports, 2020)
